Columns and labels:
[1] = tested on: O=P(O)(O)OC[C@H](O)CO; assay: purified protein; conditions: 5 mM MgCl2, 50 mM Tris-HCl pH 7.0, bis(cyclohexylammonium) salt
[2] = molecular target: T1, GlpR (Pseudomonas aeruginosa, UniProt Q51391); assay: EMSA, prevention of GlpR binding to glpFK and glpD promoter DNA; conditions: 10 mM G3P (lithium salt), 500 nM GlpR, 3.5 nM DNA probe, pH 7.4, 30 °C; effector (inducer)
T1 construct: recombinant from pETDuet-glpR in E. coli BL21(DE3), HisTrap HP purified
T1 sequence (Q51391 1-251): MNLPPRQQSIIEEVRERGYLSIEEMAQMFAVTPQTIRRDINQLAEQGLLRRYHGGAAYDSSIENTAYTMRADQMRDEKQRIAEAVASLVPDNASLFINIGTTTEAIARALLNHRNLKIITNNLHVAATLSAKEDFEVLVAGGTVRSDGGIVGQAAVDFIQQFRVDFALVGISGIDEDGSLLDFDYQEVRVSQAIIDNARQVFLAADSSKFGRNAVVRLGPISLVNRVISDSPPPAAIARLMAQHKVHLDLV

[3] = substrate: O=P(O)(O)OC[C@H](O)CO; assay: released inorganic phosphate, Michaelis-Menten regression; assay type: biochemical, Pseudomonas aeruginosa; conditions: 5 mM MgCl2, 50 mM Tris-HCl pH 7.0, bis(cyclohexylammonium) salt

Q: How did the Km [1] turn out when PA3172 (Pseudomonas aeruginosa PAO1) was run?
A: 5.634 ± 0.209 mM

Q: For `O=P(O)(O)OC[C@H](O)CO` [G3P], which “EMSA, prevention of GlpR binding to glpFK and glpD promoter DNA” value [2] is on record?
A: G3P prevents GlpR binding to the glpFK (D) and glpD (E) promoter regions

B1: PA0562 (Pseudomonas aeruginosa PAO1) (protein)
chain: MPHPIDALISDCDGVLVDSEVIAERVMYEALSAYAPLEELQRLLEGTFGLTSRDILDRVEKHFGLRIPDSFNREVRQRSEEMVAQVQPIPGAREALLALDLPVAVASNSRRHSLERSLARAGLSELIGERLASADMVALPKPAPDVYLHAASLLGVAPERCLVVEDSSTGTRAALAAGMRVIGFVGAGHIPAGHAEVLRELGAIAIVEHMRELPETVARLRRTV
Q: How did the Km [3] turn out when B1 was run?
A: 8.937 ± 1.350 mM
